Assay: soluble on expression in E. coli; label from the status in PepcDB or PDB records

Row | Sequence | soluble on expression in E. coli
1 | MGSDKIHHHHHHMPGNSSGVAAVERAVSMLEAFTDVDYSLTLGELARRTELDKSTVLRIARSLAKSSMLVRNDDASWRLGPKLVRLGGLYQSTFKSSAIVEPLLAQISDESGESAAVYVKEGVVRVCLHRHDSTQSIRHSARVGDAMPLDRGAPGRVILAFTGSSGKLYDDIRAKGFHVTIGERDPQVASVAVPVYRDGQALFGSLALTGPPSRFNEEAVSKNLEILRVAARKLSAALGGDPG | not soluble
2 | MHTIDVIDSHTAGEPTRVVLAGFPDLGDGDLAQCRERFRSDFDHWRSAIACEPRGSDTMVGALLLPPRDPSACTGVIFFNNVGYLGMCGHGTIGVVRTLAELGRIAPGQHRIETPVGTVGVALADDGTVSIDNVESYRHAAGVEVDVPGHGRVRGDVAWGGNWFFITEQAPCALGLAQQRELTAYTEAIRLALEAAGITGEAGGEIDHIEISGVAPDGSGAARNFVLCPGLAYDRSPCGTGTSAKLACLAADGKLAEGERWLQQGILGSAFEGSYRHSGRGIAPRISGHAFITARSQLLIDPADPFAWGIVALEHHHHHH | not soluble
3 | MEDLQLQVTMRDFLDALTEVEPSATREFAMEIPTATWEDIGGLEKIKERLQAMVEWPLRYPELFQQFGLQTPKGILLSGPPGTGKTLVAKALARESGINFIPVNSSLLFSHWWGEAEKTLHEVFRKARQASPCLLFFDELDALVPARKAGEGSSIGSRLVSQFLMELDGLEELREVIVLGATNRIDMIDPAVLRPGRFDQILEFPYPDQAARKEIFQIYLRNRPVDPGINLDSLAGAAEGLVGSEIEALCKRAALLAVSEVINHKGAGAYIKTCHLEQALAEIQAEKQQARTGAENHTLRPVWNNVVPGAISQVGRLEHHHHHH | soluble
4 | MGSDKIHHHHHHMQNLHIFGEQKKTDWVIFENLEKVESKTLTEEGSAIRLNSGKYRKLKAISSVDPDVLYSTCKQFLPLNELEVLNKWEPSWGKVREDILNSKVELWNQCMHESACQYAPEVVSTKAYWKSVQQHIWFCTSSSELKEDIRTCFMLDFYITVQKEGRTKQSNLTRSWLSPINVQEEDLQELVLYTANAAMEKLDARPFPSGSYALILGPLAAPGIFHEVVGHGLEADIASIPQSAFHQRLGAMVGCEKVTIIDDPTKEGLPGSYSLDDEGTIAQQTTLIEKGRVVNYLSHLHTGHPTNGHGRVINYQHLPLVRMSNTFLLPGTDDPEEMVSDTEVGLYVKKAINGDVNMITGEFEIHVAEGYLIEKGQITSPILPTTLKGDGQKLLQSIDRVGNDFAIHSEVRGGCGKLGQSPLPVSAGSPTVRVLDWYVKGADR | not soluble
5 | MSLEKNKEYIFDIISQGYEGEGIAKIDNKYPIFIEGALKGEKVKVRIVKVNKNFAYGKLMEVLEASEERVNPPCAIYKRCGGCKLQHASYKAQLDFKWDRVKDCVSKIGKLDPSIVKYPLGMEEPWRYRNKVQLPIGLINGEVKIGFFAPRSHDIIDMESCLIQDEIGDKVVKLTREWIEKFNIRPYNVDGEYDEKGIVRHIMIRRGFTTNEVMVVLVTNGEKLPHKEEFVDLMVKNIPGIKSVIQNINSKKTNVILGLESKTLWGEDTISDYIGDFRFNISPLSFFQVNPTQTEVLYGKALEYANLTGNEEVFDAYCGTGTITLFLSQKAKKVYGVEIIPQAIDNAWINAKENKVENVEFFVGESEVVIPDLINKGVKADVVVVDPPRKGCDKKLLDAITNINAKKIVYVSCDPSTLGRDLAILEENGYKTLEVQPVDMFPNTSHVENVAKLIKKEGHHHHHH | soluble
6 | MGSDKIHHHHHHMDRFDLGIVKVHRIEEWRGTFSPPAELFDGFSPDGWEPHAEEFAPEYYDPVSGKLFAFLQSWVLDTGTQRILFDTGAGNDKDRPNLPIFGNLQTGFLDNLAAAGFQPEDIDVVVCSHIHVDHVGWNTRLVDGRWEPTFRNARYVLPLADRAYWDPQDASAGPAGIGAAVNAGMFDDSVRPIIEAGRAEWAEDGFEVAEGLVLRSCPGHTPGSMMLEVSGGEDTAMFVGDVVHHPAQIYRPEWNSIFCEAPEDARETRRRVLDLAASREALLIPAHFGGSHMARVLRDGSGFRPVLDPMGSG | not soluble
7 | MSLKKILILFFSIILSLGMVSCSSSGDYKNVSTSKIKKALKSSDLLIKESKIFDAKDFNYFNDVEEDIIQGFVINSSEKLSLEDIIVIKTDEVDKIYKTLENYKKDMIQAPFGEGHGEKINSEIANNTIIEKAGRYVYLISAENATQIENKILNIIKEGHHHHHH | soluble
8 | SLPIASTATQMGSNKTRIFARQPAKAPPPLAWLSRPRDPRATAIAAAGQQSSRRVSKRELESHGSATDAWTAIHGVVYDITAYFRFHPGGAEILFIEAAGKDSTAVFDEMHPWVNVAWLLKDYRIGLYAPESEDDGGDDDDDDRTMTSPE | soluble
9 | MSLKGRPIKEFSLVMDLSQAKKGADKMGYMEDLRKRVGTRPLILPASVVIILNEQDEILLQKRLDGRWGLPGGLMELGESFEETAKREILEETGLTIKNVTFLDVFSGKDLYVKVENGDEFYAVTALFMTREVAGGIQMDPRESLDLQYIALDQFPPNVTRTSKIFLDRFMELKEGHHHHHH | soluble
10 | MGSDKIHHHHHHMDDRIVVTTQQVRALIASQFPQWAALDVQPVDLSGWDNRSFRLGEDMLVRMPSAERYVAQVEKEHRWLPELGPLLPVPIPAPLALGQPGEQYPFCWSVYRWLKGEPLARYLDSIELSAIAIDVAAFLKALHGIDASAGPPAGAHNFHRGGSLAVYDGEARASAARLANEVDQALAMEIWQLALSSHWQGKGVWVHGDIAEGNLLVQDGRLSAVIDFGSSGVGDPSSDLILAWNVLDAHSRAVFRQALGLDEATWQRGRGWALWKALIVLDAERGRNEKMAEWSRRTLREIFADHLEN | not soluble
11 | MGSDKIHHHHHHMRDSVFKLSYFLSANEKFHIARVNITSSQDLSLHSHDYAEILWVEKGTGIHHVNGHQFRLSPGDLIMVRPKDRHTFSSSGKGIVIVNVAFPVETLDYFRQRYFEWSNLYFWTTGMFPFQMRLSRDIVKRLSSRAEEAMKYGRSNIQLDSLLLFIFRQITANEKVEDSSEIPVWLFNAIQKFNSPEFFIQGIAGFVTLCDRNIDYVNRIVKLHFHKSLTDLINEFKMQYATTQLSITSMPIKEICTNCGFRNLGHFYKIFRSVYNQTPYEYRRINQLIV | not soluble
12 | MGSDKIHHHHHHMIKFGEAVLGNEIKAIVNVALGKGELIENTFTNALTRGNCVFANLRPNLIVKPLTLVVPRHNIESEIQDELFQGVIQYAVAKAVADLDLDEDLKVVVSVNVPEVPITNLNKRKLFQYFYASAKLAINRALNEYPSKEKVKKEKYRALHPLVGFRDVRLEYPPYLQIALDVPTMENLEFLLQTIPNSDHIILEAGTPLIKKFGLEVIEIMREYFDGFIVADLKTLDTGRVEVRLAFEATANAVAISGVAPKSTIIKAIHECQKCGLISYLDMMNVSEPQKLYDSLKLKPDVVILHRGIDEETFGIKKEWKFKENCLLAIAGGVGVENVEELLKEYQILIVGRAITKSKDPGRVIRMFINKMGYDIDTYRLYFDEDEDIGEEL | not soluble
13 | MAQQHNDWADITSLDTFPKVLQHNAKHWPEQVAMREKEFGIWREFTWQDYENRVKWMALALQDLGIGEQDVVGLLGDNRPEWVWGELAAHAIKGYSLGIYQDSMHEEVAYLINYAKAKVVIAEDEEQCDKLLELGDEIPSVEYIIYCDPRGMRKYDDPRLIDVEQVYKKGQLIDKADPDKYLNMVAATKGSDLSILCTTSGTTSKPKLAQLHSGTFLDHCAAYLRADPRSPGDNYVSVLPLPWIMEQVYVVGQALISRQIVNFVEEQETMMSDLREIGPNFVLLAPRVWENIVADVSARMMDSTPFKQKMYKLGMSLANKALDQGKRSKLAEWILLRA | not soluble
14 | MAKYQSMLVVIDPNQDDQPALRRAVYLHQRIGGRIKAFLPIYDFSYEMTTLLSPDERTAMRQGVIAQRTAWIREQAKFYLESGVPIDVKVVWHNRPFEAIIQEVVSEKHDLLLKMAHQHDKLEAVIFTPTDWHLLRKCPCPVWMVKDQPWPEGGKALVAVNLASEENYHNTLNEKLVRETLSLAEEVNHTEVHLIGAYPVTPINIAIELPDFDPSVYNDAIRGQHLLAMKALRQKFGIDEKFTHVEKGLPEEVIPDLAEHLQAGIVVLGTVGRTGLSAAFLGNTAEQVVDHLRCDLLVLKPEAYQTPVELDDDDDD | not soluble
15 | DVIELTDDSFDKNVLDSEDVWMVEFYAPWCGHCKNLEPEWAAAASEVKEQTKGKVKLAAVDATVNQVLASRYGIRGFPTIKIFQKGESPVDYDGGRTRSDIVSRALDLFSDNAPPPELLE | soluble

Reference: the DeepSol protein solubility set
